Data set [1] addresses Ca2+/calmodulin (endogenous, in Arabidopsis plants) (Arabidopsis thaliana). The data set can be described thus: cell-based or functional assay.
Data set [2] deals with T1, AtSR1 (CAMTA3) CG-1 DNA-binding domain (Arabidopsis thaliana, UniProt Q8GSA7 SEQ:1-153).
T1 sequence: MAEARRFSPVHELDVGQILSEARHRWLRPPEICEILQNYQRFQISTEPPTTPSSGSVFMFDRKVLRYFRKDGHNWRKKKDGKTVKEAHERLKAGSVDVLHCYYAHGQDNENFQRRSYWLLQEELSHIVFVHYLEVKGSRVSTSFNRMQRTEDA
The data set can be described thus: EMSA; Ca2+/CaM-independent. The following applies: tags: 6xHis (pET32a). The procedure: (§1) The E. coli strain BL21(DE3)/pLysS carrying the above pET32a derived plasmids for expression of recombinant proteins of the wild-type and mutated versions of AtSR1, AtSR6 or ABF1 were induced with 0.5 mM IPTG for 3 hours. 6×His tagged recombinant proteins were purified using Ni-NTA agarose affinity beads (Qiagen) as described by the manufacturer. Recombinant AtSR1 or AtSR6 covering CG-1 domain, or ABF1 was used for EMSA³² to detect its interaction with WT or mutated EDS1 promoter fragments. Recombinant AtSR1 containing CaMBD was used for CaM overlay assay³⁸.
On the technique in general: A gel shift assay detects complexes by their altered migration in electrophoresis.

Data set [3] concerns the target T1, AtSR1 (CAMTA3) CG-1 DNA-binding domain. The data set can be described thus: EMSA; binding is ACGCGT-dependent. The settings on record: tags: 6xHis (pET32a). The procedure:
as §1

Turning to “full-length wild-type AtSR1 fused to Flag tag, expressed from 35S::AtSR1 in atsr1-1 plants (from UniProt Q8GSA7 1-1032)”, in data set [1], the level of SA in complemented plants is 60 % of WT.

For the molecule “full-length AtSR1 I909V fused to Flag tag, expressed from 35S::AtSR1I909V in atsr1-1 plants (from UniProt Q8GSA7 1-1032)”, in data set [1], the level of SA in complemented plants is 60 % of WT.

B1: EDS1P probe (-762 to -731) (dsDNA)
DNA 1: GTAAAAGTCGAATGTGACGCGTCTTGCCGAAC
DNA 2: GTTCGGCAAGACGCGTCACATTCGACTTTTAC
For B1, the binding result in data set [2] is given as “binds”.

B2: eds1p mutant probe (dsDNA)
DNA 1: GTAAAAGTCGAATGTGACCCGTCTTGCCGAAC
DNA 2: GTTCGGCAAGACGGGTCACATTCGACTTTTAC
modifications: [19 (G>C)]
As for B2, the binding result in data set [3] was “no binding”.

The record behind these values is patent US20100223690A1, “COMPOSITIONS AND METHODS FOR MODULATING PLANT DISEASE RESISTANCE AND IMMUNITY” (Washington State University, published 2010).
